These results are taken from US20110059015A1 (CONSEJO SUPERIOR DE INVESTIGACIONES CIENTIFICAS CSIC, published 2011).

Test [1] concerns the target gp120 of HIV-1 MN strain (on virus) (HIV-1 (MN), UniProt P05877 32-513). In words: cell-based or functional assay.
Test [2] addresses T1, BSA (Bos taurus, UniProt P02769).
T1 construct: commercial serum albumin; also called bovine serum albumin
Kind of test: ELISA, soluble Fab on BSA coated wells. (In general: In an ELISA, binding on a coated surface is turned into a signal by an enzyme label.)

For test [3], the target named is T1, BSA. In words: ELISA, soluble Fab of the shuffled HC/LC pair on BSA coated wells.
The target of test [4] is gp120 of HIV-1 RF strain (on virus) (HIV-1 (RF), UniProt P04579 32-519). In words: cell-based or functional assay.
Test [5] deals with gp120 of HIV-1 SF-2 strain (on virus) (HIV-1 (SF-2), UniProt P03378 32-509). Kind of test: cell-based or functional assay.
The target of test [6] is T1, BSA. In words: ELISA, soluble Fab on BSA coated wells. This is another data set of the same source.
In test [7] the target is T1, BSA. Kind of test: ELISA, soluble mutant Fab on BSA coated wells.
The target in test [8] is T1, BSA. In words: ELISA, Fab titration on BSA coated wells.
Test [9] deals with T1, BSA. Kind of test: ELISA, soluble mutant Fab on BSA coated wells. This is another data set of the same source.

T1 sequence (P02769 25-607 limits assumed): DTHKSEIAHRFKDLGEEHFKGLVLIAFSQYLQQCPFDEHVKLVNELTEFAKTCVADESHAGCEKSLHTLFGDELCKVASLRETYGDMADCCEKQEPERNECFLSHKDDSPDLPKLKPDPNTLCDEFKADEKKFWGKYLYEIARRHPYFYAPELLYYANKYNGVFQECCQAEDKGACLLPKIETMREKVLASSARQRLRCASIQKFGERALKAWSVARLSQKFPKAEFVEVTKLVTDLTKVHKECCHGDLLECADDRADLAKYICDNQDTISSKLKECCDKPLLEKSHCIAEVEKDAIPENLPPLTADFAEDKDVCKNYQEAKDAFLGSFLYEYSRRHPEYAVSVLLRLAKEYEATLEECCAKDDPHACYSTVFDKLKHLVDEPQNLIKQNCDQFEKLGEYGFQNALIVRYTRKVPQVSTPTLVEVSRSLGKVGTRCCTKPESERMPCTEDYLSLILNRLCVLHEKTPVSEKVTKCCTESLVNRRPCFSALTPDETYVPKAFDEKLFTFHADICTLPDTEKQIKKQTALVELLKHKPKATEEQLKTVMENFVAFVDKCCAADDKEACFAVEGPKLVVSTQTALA

B1: Fab S20 (Fab, V domains shown)
VH: LESGGGVVQPGRSLRLSCSASGFSFRDYAMHWVRQAPGKGLEWVAFIWFDGSNERYADSVKGRFTITRDNPKNTLYLQMNSLRVEDTAVYYCVRRGGSILTGFHLDYWGQGTLVTVSS
VL: ELTQSPSSLSASVGDRVTITCRASQGIRDDLGWYQQKPGKAPKRLIYAASNLQSGVPSRFSGGGSGTEFTLTISSLQPEDFATYYCLQHNSYPLTFGGGTKVEIKR
notes: also called IgG Fab S20
Take B1: the “% neutralisation of HIV-1 MN, NPA in MT-4 cells, at 20 µg/ml Fab” value in [1] is 90%. Moreover, in the test with BSA [2], the binding result is reported as “no binding (tested: not given on the sheet)”.

B2: S20/S8 (Fab, V domains shown)
VH: LESGGGVVQPGRSLRLSCSASGFSFRDYAMHWVRQAPGKGLEWVAFIWFDGSNERYADSVKGRFTITRDNPKNTLYLQMNSLRVEDTAVYYCVRRGGSILTGFHLDYWGQGTLVTVSS
VL: ELTQSPSSLSASVGDRVTITCRASQGIRDDLGWYQQKPGKAPKRLIYAASNLQSGVPSRFSGGGSGTEFTLTISSLQPEDFATYYCLQHNSYPLTFGGGTKVEIKR
notes: also called S20 heavy chain paired with S8 light chain
With B2, the binding result with BSA [3] is recorded as “no binding (tested: not given on the sheet)”.

B3: Fab S8 (Fab, V domains shown)
VH: LESGGGLVKPGGSLRLSCAASGFTFSSYAMHWVRQAPGKGLEWVAFIWFDGSNERYADSVKGRFTITRDNPKNTLYLQMNSLRVEDTAVYYCVRRGGSILTGFHLDYWGQGTLVTVSS
VL: ELTQSPSSLSASVGDRVTITCRASQGIRDDLGWYQQKPGKAPKRLIYAASNLQSGVPSRFSGGGSGTEFTLTISSLQPEDFATYYCLQHNSYPLTFGGGTKVEIKR
notes: also called IgG Fab S8; S8 Fab
For B3, the “% neutralisation of HIV-1 MN, NPA in MT-4 cells, at 20 µg/ml Fab” value in test [1] came out at 90%. The “% neutralisation, IRA in MT-2 cells, at 1 µg/ml Fab S8” value in test [1], in test [4] and in test [5] was 50% throughout. Besides, the “% neutralisation, IRA in MT-2 cells, at 10 µg/ml Fab S8” value in test [1], in test [4] and in [5] was > 90% each time. Moreover, in the test with BSA [6], the binding result is listed as “no binding (tested: not given on the sheet)”.

B4: mutant Fab S2095K (Fab, V domains shown)
VH: LESGGGVVQPGRSLRLSCSASGFSFRDYAMHWVRQAPGKGLEWVAFIWFDGSNERYADSVKGRFTITRDNPKNTLYLQMNSLRVEDTAVYYCVRKGGSILTGFHLDYWGQGTLVTVSS
VL: ELTQSPSSLSASVGDRVTITCRASQGIRDDLGWYQQKPGKAPKRLIYAASNLQSGVPSRFSGGGSGTEFTLTISSLQPEDFATYYCLQHNSYPLTFGGGTKVEIKR
Turning to B4, the binding result with BSA [7] is recorded as “no binding (tested: not given on the sheet)”.

B5: Fab S19 (Fab, V domains shown)
VH: LESGGGVVQPGRSLRLSCAASGFSFSSHGMHWVRQAPGKGLEWVAFIWFDGSNERYADSVKGRFTITRDNPKNTLYLQMNSLRVEDTAVYYCVRRGGSILTGFHLDYWGQGTLVTVSS
VL: ELTQSPSSLSASVGDRVTITCRASQGIRDDLGWYQQKPGKAPKRLIYAASNLQSGVPSRFSGGGSGTEFTLTISSLQPEDFATYYCLQHNSYPLTFGGGTKVEIKR
notes: also called IgG Fab S19
For the molecule B5, the binding result with BSA [8] was “no binding (tested: about 10 µg/ml)”.

B6: Fab S8 HCDR3 mutant Arg95 to Asp (Fab, V domains shown)
VH: LESGGGLVKPGGSLRLSCAASGFTFSSYAMHWVRQAPGKGLEWVAFIWFDGSNERYADSVKGRFTITRDNPKNTLYLQMNSLRVEDTAVYYCVRDGGSILTGFHLDYWGQGTLVTVSS
VL: ELTQSPSSLSASVGDRVTITCRASQGIRDDLGWYQQKPGKAPKRLIYAASNLQSGVPSRFSGGGSGTEFTLTISSLQPEDFATYYCLQHNSYPLTFGGGTKVEIKR
For B6, the binding result with BSA [9] was “no binding (tested: not given on the sheet)”.

B7: mutant Fab S895K (Fab, V domains shown)
VH: LESGGGLVKPGGSLRLSCAASGFTFSSYAMHWVRQAPGKGLEWVAFIWFDGSNERYADSVKGRFTITRDNPKNTLYLQMNSLRVEDTAVYYCVRKGGSILTGFHLDYWGQGTLVTVSS
VL: ELTQSPSSLSASVGDRVTITCRASQGIRDDLGWYQQKPGKAPKRLIYAASNLQSGVPSRFSGGGSGTEFTLTISSLQPEDFATYYCLQHNSYPLTFGGGTKVEIKR
Take B7: the binding result in the test with BSA [9] is given as “no binding (tested: not given on the sheet)”.

B8: S2095 P (Fab, V domains shown)
VH: LESGGGVVQPGRSLRLSCSASGFSFRDYAMHWVRQAPGKGLEWVAFIWFDGSNERYADSVKGRFTITRDNPKNTLYLQMNSLRVEDTAVYYCVRPGGSILTGFHLDYWGQGTLVTVSS
VL: ELTQSPSSLSASVGDRVTITCRASQGIRDDLGWYQQKPGKAPKRLIYAASNLQSGVPSRFSGGGSGTEFTLTISSLQPEDFATYYCLQHNSYPLTFGGGTKVEIKR
With B8, the binding result with BSA [7] was “no binding (tested: not given on the sheet)”.

B9: Fab S8 HCDR3 mutant Arg95 to Gly (Fab, V domains shown)
VH: LESGGGLVKPGGSLRLSCAASGFTFSSYAMHWVRQAPGKGLEWVAFIWFDGSNERYADSVKGRFTITRDNPKNTLYLQMNSLRVEDTAVYYCVRGGGSILTGFHLDYWGQGTLVTVSS
VL: ELTQSPSSLSASVGDRVTITCRASQGIRDDLGWYQQKPGKAPKRLIYAASNLQSGVPSRFSGGGSGTEFTLTISSLQPEDFATYYCLQHNSYPLTFGGGTKVEIKR
With B9, the binding result with BSA [9] is listed as “no binding (tested: not given on the sheet)”.
